Reference: patent US6495144B2, “EBNA2 peptides and methods of using same” (Johns Hopkins University School of Medicine, priority 1996, dated 2002)
Where no end group is shown, it is not given here.

Key:
[1] = molecular target: T1, EBNA2/CBF1 complex (Homo sapiens, UniProt Q06330); assay: EMSA competition of synthetic peptides for EBNA2/CBF1 complex formation; format: binding; details: for competition for EBNA2/CBF1 complex formation in EMSA, in words: 1.25-10 μg synthetic peptide
T1 construct: and heparin-agarose purified CBF1; endogenous in cells; host or cells: CBF1: heparin-agarose purified cell protein; EBNA2 252-425: in vitro translation
T1 sequence (Q06330 whole entry, one chain of several): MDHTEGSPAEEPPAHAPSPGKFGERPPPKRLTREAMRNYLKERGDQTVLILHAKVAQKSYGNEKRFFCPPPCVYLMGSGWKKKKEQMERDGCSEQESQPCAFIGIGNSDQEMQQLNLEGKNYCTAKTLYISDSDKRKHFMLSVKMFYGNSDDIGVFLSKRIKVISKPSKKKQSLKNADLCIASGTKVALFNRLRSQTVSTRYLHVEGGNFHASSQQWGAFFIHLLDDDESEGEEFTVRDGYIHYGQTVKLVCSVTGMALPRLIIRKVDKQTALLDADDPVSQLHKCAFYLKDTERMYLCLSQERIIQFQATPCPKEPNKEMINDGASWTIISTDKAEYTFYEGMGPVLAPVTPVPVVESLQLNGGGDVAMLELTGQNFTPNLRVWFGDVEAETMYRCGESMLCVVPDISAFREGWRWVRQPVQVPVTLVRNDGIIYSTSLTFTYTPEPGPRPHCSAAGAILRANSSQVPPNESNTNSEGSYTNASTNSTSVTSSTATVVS
Protocol: FIG. 8 is an EMSA that examines the ability of synthetic peptides representing CR5 (PEP.CR5), CR6 (PEP.CR6), mutant CR6 (CR6WW323SR) (PEP.CR6WW>SR), CR7 (PEP.CR7), and a control, nonconserved region comprising amino acids 265-279 (CONTROL) to compete for EBNA2/CBF1 complex formation. Increasing amounts of peptide (i.e., 1.25, 2.5, 5.0 and 10 μg; black triangles) were added to the binding reactions containing the Cp CBF1 binding site probe, in vitro translated wild-type EBNA2 (i.e., corresponding to amino acids 252-425) and heparin-agarose purified CBF1.
CR6 could perform this function by generating a specific secondary or tertiary structure that facilitates interaction (e.g., a lock and key model of interaction). Alternately, CR6 could mediate direct protein-protein contacts, perhaps through the formation of a tryptophan bridge (Corina et al., Virology, 197, 391-396 (1993)). To further examine the proposed contributions of CR5, CR6, and CR7 in EBNA2 interaction, and to probe the role of CR6, five 10-15 amino acid peptides were synthesized. The peptides were tested for their ability to compete with a full length EBNA2 protein for complex formation with CBF1. The relative location of the peptides in the EBNA2 protein is illustrated in FIG. 2, and the exact position of the sequences can be determined from FIG. 5. The peptides are as follows: a control peptide comprised of amino acids 265-279 (i.e., Ser Thr Pro Asn Asp Pro Asp Ser Pro Glu Pro Xaa Ser Pro Thr [SEQ ID NO:8], wherein Xaa is Arg or Pro); a CR5 peptide comprised of amino acids 299-314 (i.e., Ala Pro Ala Gln Pro Pro Pro Gly Ile Ile Asn Asp Gln Gln Leu [SEQ ID NO:9]); a CR6 peptide comprised of amino acids 318-327 (i.e., Pro Ser Gly Pro Pro Trp Trp Pro Pro Ile [SEQ ID NO:6]); a CR6 WW323SR peptide comprised of amino acids 318-327 (i.e., Pro Ser Gly Pro Pro Ser Arg Pro Pro Ile [SEQ ID NO:10]); and a CR7 peptide comprised of amino acids 380-391 (i.e., Pro Ser Met Pro Glu Leu Ser Pro Val Leu Gly Leu [SEQ ID NO:11]).
Increasing amounts of the peptides were added to the binding reaction mixtures which were then analyzed using an EMSA (FIG. 8). […] It is known that EBNA2 can interact with CBF1 in solution (Grossman et al., supra; Henkel et al., supra). A typical binding reaction presumably contains both DNA-bound and non-DNA-bound EBNA2/CBF1 complexes.

[2] = molecular target: T2, EBNA2 interaction with CBF1 in solution (Homo sapiens, UniProt Q06330); assay: GST affinity assay with GST-EBNA2 (252-425) and 35S-labeled in vitro translated CBF1; format: binding
T2 construct: made in house; host or cells: CBF1: in vitro translation
T2 sequence (Q06330 whole entry): as the sequence (Q06330 whole entry, one chain of several) above

Substance: Pro Ser Met Pro Glu Leu Ser Pro Val Leu Gly Leu [CR7 peptide]
- competition for EBNA2/CBF1 complex formation in EMSA, in words [1]: Neither the control peptide nor the peptides spanning CR5 or CR7 had any effect on the formation of the EBNA2/CBF1 complex

Substance: PSGPPWWPPI [CR6 peptide]
- competition for EBNA2 interaction with CBF1 in GST affinity assay, in words [2]: could compete for EBNA2 interaction with CBF1 in solution
- competition for EBNA2/CBF1 complex formation in EMSA, in words [1]: regenerating the DNA-bound CBF1 complex to the levels seen in the absence of added EBNA2
- EBNA2/CBF1 complex eliminated by competition ([1]; 1.25-10 μg synthetic peptide added to binding reaction): 40%

Substance: PSGPPSRPPI [CR6 WW323SR peptide]
- competition for EBNA2 interaction with CBF1 in GST affinity assay, in words [2]: abolished the ability of the peptide to compete with EBNA2 for interaction with CBF1
- competition for EBNA2/CBF1 complex formation in EMSA, in words [1]: abolished the ability of the peptide to compete with EBNA2 for interaction with CBF1

Substance: APAQPPPGIINDQQL [CR5 peptide]
- competition for EBNA2/CBF1 complex formation in EMSA, in words [1]: Neither the control peptide nor the peptides spanning CR5 or CR7 had any effect on the formation of the EBNA2/CBF1 complex

Substance: Ser Thr Pro Asn Asp Pro Asp Ser Pro Glu Pro Xaa Ser Pro Thr [control peptide, reference compound]
- competition for EBNA2/CBF1 complex formation in EMSA, in words [1]: Neither the control peptide nor the peptides spanning CR5 or CR7 had any effect on the formation of the EBNA2/CBF1 complex
